What all share (assay): radioligand displacement, compound at 10 µM
What all share (conditions): remark: other sources report otherwise

The target of test [1] is 5-HT2B (h) (human), P41595.
Test [2] addresses V1a (h) (human), P37288.
For test [3], the target named is H1 (h) (human), P35367.
Test [4] deals with T1, 5-HT1A (h) (human), P08908.
T1 chain: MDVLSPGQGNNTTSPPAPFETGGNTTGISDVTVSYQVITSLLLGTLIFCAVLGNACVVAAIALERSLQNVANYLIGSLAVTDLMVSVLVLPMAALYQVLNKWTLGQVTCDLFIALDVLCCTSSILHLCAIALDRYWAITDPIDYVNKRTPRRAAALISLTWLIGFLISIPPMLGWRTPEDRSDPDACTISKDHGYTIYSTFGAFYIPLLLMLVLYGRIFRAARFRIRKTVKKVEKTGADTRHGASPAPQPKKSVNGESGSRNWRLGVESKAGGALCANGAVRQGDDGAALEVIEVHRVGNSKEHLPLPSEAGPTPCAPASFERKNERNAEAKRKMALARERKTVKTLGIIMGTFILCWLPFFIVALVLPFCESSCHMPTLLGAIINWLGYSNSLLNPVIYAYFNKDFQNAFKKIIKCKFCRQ

Test [5] has as its target kappa (h) (KOP) (human), P41145.
Test [6] has as its target 5-HT1B (h) (human), P28222.
The target of test [7] is T2, AR (h) (human), P10275.
T2 chain: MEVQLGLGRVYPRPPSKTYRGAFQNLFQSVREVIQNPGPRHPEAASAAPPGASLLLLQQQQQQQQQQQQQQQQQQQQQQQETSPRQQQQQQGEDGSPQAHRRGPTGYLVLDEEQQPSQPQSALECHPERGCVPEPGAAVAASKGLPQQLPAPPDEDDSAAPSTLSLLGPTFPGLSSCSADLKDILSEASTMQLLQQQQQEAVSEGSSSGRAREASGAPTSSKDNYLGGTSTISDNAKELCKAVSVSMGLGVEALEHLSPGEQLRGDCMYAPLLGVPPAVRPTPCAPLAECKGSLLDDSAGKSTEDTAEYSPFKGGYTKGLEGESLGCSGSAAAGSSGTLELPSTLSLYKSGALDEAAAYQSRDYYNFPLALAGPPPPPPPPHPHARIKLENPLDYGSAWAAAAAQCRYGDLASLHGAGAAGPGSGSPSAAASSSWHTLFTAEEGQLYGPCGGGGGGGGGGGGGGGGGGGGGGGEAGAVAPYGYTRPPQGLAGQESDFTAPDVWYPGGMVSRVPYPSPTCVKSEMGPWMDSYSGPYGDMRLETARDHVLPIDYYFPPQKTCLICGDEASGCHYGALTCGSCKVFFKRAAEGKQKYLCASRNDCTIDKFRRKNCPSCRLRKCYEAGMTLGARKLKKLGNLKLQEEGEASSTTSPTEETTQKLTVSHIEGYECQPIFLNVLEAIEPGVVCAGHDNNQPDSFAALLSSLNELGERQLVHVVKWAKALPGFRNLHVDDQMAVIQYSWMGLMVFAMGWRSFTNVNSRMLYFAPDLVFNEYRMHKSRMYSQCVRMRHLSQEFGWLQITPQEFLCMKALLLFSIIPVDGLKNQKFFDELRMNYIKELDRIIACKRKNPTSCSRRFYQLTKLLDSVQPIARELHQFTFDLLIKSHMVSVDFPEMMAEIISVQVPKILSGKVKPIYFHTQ

The target in test [8] is T3, D1 (h) (human), P21728.
T3 chain: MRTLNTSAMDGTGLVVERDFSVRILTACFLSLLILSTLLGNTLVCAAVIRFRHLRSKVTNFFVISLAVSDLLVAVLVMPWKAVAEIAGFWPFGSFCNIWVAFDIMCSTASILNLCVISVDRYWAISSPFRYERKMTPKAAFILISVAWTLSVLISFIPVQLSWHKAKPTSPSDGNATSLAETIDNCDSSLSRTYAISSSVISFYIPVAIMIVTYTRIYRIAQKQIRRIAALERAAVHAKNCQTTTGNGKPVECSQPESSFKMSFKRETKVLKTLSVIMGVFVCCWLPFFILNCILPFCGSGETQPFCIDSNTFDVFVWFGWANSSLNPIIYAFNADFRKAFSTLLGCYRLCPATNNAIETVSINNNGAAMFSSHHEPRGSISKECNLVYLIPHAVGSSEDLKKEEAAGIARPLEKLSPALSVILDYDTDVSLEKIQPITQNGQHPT

In test [9] the target is T4, alpha 2A (h) (human), P08913.
T4 chain: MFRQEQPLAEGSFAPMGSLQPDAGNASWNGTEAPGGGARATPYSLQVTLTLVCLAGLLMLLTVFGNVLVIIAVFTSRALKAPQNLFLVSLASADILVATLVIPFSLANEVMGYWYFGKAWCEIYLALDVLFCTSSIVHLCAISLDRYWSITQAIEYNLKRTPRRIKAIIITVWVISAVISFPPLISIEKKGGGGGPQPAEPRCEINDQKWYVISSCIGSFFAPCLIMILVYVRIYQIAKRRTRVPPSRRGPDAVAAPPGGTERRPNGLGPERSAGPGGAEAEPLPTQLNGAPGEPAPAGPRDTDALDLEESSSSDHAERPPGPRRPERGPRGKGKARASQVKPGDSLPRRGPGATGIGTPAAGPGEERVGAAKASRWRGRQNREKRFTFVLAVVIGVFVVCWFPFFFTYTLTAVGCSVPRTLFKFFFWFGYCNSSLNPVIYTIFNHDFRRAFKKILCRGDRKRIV

Chain of kappa (h) (KOP) (human), P41145 (P41145 whole entry): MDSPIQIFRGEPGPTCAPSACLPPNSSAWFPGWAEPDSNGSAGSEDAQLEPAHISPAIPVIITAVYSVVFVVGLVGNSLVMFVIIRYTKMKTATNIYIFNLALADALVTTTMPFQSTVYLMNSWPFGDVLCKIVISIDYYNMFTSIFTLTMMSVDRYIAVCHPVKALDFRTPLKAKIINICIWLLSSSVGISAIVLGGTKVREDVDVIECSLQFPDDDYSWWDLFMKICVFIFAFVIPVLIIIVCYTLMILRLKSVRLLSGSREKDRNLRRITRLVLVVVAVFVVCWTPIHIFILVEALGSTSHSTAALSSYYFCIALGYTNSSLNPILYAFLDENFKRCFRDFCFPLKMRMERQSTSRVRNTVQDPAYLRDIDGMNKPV
Chain of H1 (h) (human), P35367 (P35367 whole entry): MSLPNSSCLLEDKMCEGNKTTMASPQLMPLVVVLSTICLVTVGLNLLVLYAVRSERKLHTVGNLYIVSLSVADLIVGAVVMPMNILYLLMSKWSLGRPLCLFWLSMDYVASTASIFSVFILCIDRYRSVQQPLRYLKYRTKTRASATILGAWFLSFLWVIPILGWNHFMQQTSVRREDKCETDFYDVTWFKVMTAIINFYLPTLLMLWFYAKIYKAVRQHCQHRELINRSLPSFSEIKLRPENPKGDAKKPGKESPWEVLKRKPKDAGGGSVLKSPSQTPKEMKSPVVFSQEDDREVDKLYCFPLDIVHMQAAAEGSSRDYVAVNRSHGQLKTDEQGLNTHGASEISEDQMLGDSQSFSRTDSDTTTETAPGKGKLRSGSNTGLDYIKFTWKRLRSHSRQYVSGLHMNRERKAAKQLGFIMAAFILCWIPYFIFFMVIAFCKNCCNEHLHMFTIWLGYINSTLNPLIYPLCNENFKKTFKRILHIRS
Chain of 5-HT2B (h) (human), P41595 (P41595 whole entry): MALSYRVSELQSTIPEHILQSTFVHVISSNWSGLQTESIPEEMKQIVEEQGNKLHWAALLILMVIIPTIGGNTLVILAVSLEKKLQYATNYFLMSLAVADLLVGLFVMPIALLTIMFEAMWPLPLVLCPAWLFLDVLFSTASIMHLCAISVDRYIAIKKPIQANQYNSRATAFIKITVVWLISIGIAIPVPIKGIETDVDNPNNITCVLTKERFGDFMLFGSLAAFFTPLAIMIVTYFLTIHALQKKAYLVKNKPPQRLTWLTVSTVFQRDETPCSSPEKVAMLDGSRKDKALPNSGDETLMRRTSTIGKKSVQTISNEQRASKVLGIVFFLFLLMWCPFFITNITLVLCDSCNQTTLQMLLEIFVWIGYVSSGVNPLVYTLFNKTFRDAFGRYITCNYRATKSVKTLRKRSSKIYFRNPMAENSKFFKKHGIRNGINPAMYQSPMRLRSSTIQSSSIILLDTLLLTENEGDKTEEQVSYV

B1: Hex-[Cys(tMeBn(DOTA-PP))-Pro-Pro-Thr-Gln-Phe-Cys]-Asp-NH2 (3BP-3407) (peptide)
peptide: CPPTQFCD
modifications: here or on the partner: N-terminal hexanoyl (Hex); Cys1 and Cys7 cyclised through tMeBn carrying DOTA-PP; C-terminal amide
Consider B1, for which the % Inhibition of Specific Binding in [1] is 2%; in test [2], 16%; in test [3] it was 11%; in test [4], -3%; in test [5], 7%; in [6], -11%. Moreover, the results for the % Inhibition of Specific Binding in test [7], in [8] and in test [9] were 3%, 0% and -9%, respectively.

B2: Hex-[Cys(tMeBn(DOTA-AET))-Pro-Pro-Thr-Gln-Phe-Cys]-OH (3BP-3554) (peptide)
peptide: CPPTQFC
modifications: here or on the partner: N-terminal hexanoyl (Hex); Cys1 and Cys7 cyclised through tMeBn carrying DOTA-AET; free C-terminal acid (-OH)
As for B2, the % Inhibition of Specific Binding was 3% in [1]; 1% in test [2]; 4% in test [3]; -5% in [4]; 10% in [5]; 8% in test [6]. In addition, the % Inhibition of Specific Binding in [7] is -5%; in test [8] it was 7%; in [9], 2%.

The values above are taken from patent US12427210B2, “Compounds comprising a fibroblast activation protein ligand and use thereof” (priority 2019, dated 2025).
